Test results taken from US20210283212A1 (RA PHARMACEUTICALS, published 2021).
Starred links: 1 amine or outer side, 2 acyl side, 3 side chain; linkers in the order of their positions; H or OH if unused. Positions of bridges follow the written chain, without caps; N, C: chain ends. Non-standard residues stand in square brackets, D forms with d. Primed or numbered codes have the meaning given here. *: point of attachment. mXylyl(3) = bridging moiety between the two residues given in brackets; mXylyl″ = bridging moiety between the two marked residues; Trp(7-aza) = N[C@@H](Cc1c[nH]c2ncccc12)C(=O)O; Phe(3-Cl) = N[C@@H](Cc1cccc(Cl)c1)C(=O)O; Tiq1c(1S) = O=C(O)[C@H]1NCCc2ccccc21; pXylylene = c1cc(C[*:2])ccc1C[*:1]; dPhg = N[C@@H](C(=O)O)c1ccccc1; Phg = N[C@H](C(=O)O)c1ccccc1; Tle = CC(C)(C)[C@H](N)C(=O)O; NMeS = CN[C@@H](CO)C(=O)O; hCys = N[C@@H](CCS)C(=O)O; Heptanoyl = CCCCCCC(=O)*; Nle = CCCC[C@H](N)C(=O)O; Pra = C#CC[C@H](N)C(=O)O; Nva = CCC[C@H](N)C(=O)O; Sar = CNCC(=O)O

B1: R3104 (peptide)
peptide: Ac-[Nva][hCys][Phg]T[Trp(7-aza)]EY[NMeS]HC[Nva]-NH2
modifications: linker 2-10 via pXylylene
SMILES: CCC[C@H](NC(=O)[C@@H]1CSCc2ccc(cc2)CSCC[C@H](NC(=O)[C@H](CCC)NC(C)=O)C(=O)N[C@@H](c2ccccc2)C(=O)N[C@@H]([C@@H](C)O)C(=O)N[C@@H](Cc2c[nH]c3ncccc23)C(=O)N[C@@H](CCC(=O)O)C(=O)N[C@@H](Cc2ccc(O)cc2)C(=O)N(C)[C@@H](CO)C(=O)N[C@@H](Cc2c[nH]cn2)C(=O)N1)C(N)=O
B2: R3108 (peptide)
peptide: Ac-[Nva][hCys][Phg]T[Trp(7-aza)]EY[NMeS]H[hCys][Nva]-NH2
modifications: linker 2-10 via pXylylene
SMILES: CCC[C@H](NC(=O)[C@@H]1CCSCc2ccc(cc2)CSCC[C@H](NC(=O)[C@H](CCC)NC(C)=O)C(=O)N[C@@H](c2ccccc2)C(=O)N[C@@H]([C@@H](C)O)C(=O)N[C@@H](Cc2c[nH]c3ncccc23)C(=O)N[C@@H](CCC(=O)O)C(=O)N[C@@H](Cc2ccc(O)cc2)C(=O)N(C)[C@@H](CO)C(=O)N[C@@H](Cc2c[nH]cn2)C(=O)N1)C(N)=O
B3: R3106 (peptide)
peptide: Ac-[Nva]C[Phg]T[Trp(7-aza)]EY[NMeS]H[hCys][Nva]-NH2
modifications: linker 2-10 via pXylylene
SMILES: CCC[C@H](NC(=O)[C@@H]1CCSCc2ccc(cc2)CSC[C@H](NC(=O)[C@H](CCC)NC(C)=O)C(=O)N[C@@H](c2ccccc2)C(=O)N[C@@H]([C@@H](C)O)C(=O)N[C@@H](Cc2c[nH]c3ncccc23)C(=O)N[C@@H](CCC(=O)O)C(=O)N[C@@H](Cc2ccc(O)cc2)C(=O)N(C)[C@@H](CO)C(=O)N[C@@H](Cc2c[nH]cn2)C(=O)N1)C(N)=O
B4: R3101 (peptide)
peptide: VCGTWEYSHGCV
modifications: not fully specified; [mXylyl(2,10)]Ac-Nvl-C-Phg-T-azaTrp-E-Y-(N-Me)S-H-G-C-Nvl-NH2
B5: R3000 (peptide)
peptide: Ac-[Nva]CYKNYH[Trp(7-aza)]EYP[Tle]Y-NH2
SMILES: CCC[C@H](NC(C)=O)C(=O)N[C@@H](CS)C(=O)N[C@@H](Cc1ccc(O)cc1)C(=O)N[C@@H](CCCCN)C(=O)N[C@@H](CC(N)=O)C(=O)N[C@@H](Cc1ccc(O)cc1)C(=O)N[C@@H](Cc1c[nH]cn1)C(=O)N[C@@H](Cc1c[nH]c2ncccc12)C(=O)N[C@@H](CCC(=O)O)C(=O)N[C@@H](Cc1ccc(O)cc1)C(=O)N1CCC[C@H]1C(=O)N[C@H](C(=O)N[C@@H](Cc1ccc(O)cc1)C(N)=O)C(C)(C)C

target: human C5 protein (human, UniProt P01031 19-673; P01031 678-1676); experiment: cell-based or functional assay

Going from Ac-[Nva]C[Phg]T[Trp(7-aza)]E[Phe(3-Cl)][NMeS]AC[Nva]-NH2 (linker 2-10 via mXylyl(3)) [R3134] to Ac-C[Tle]ERFCD[Tle]YWEF-NH2 (linker 1-6 via mXylyl(3)) [R3139], the “Avg. IC50, human hemolysis assay” value falls from greater than 5000 nM to 97.2 nM.

Going from Ac-[Nva]T[Phg]C[Trp(7-aza)]EY[NMeS]AC[Nva]-NH2 (linker 4-10 via mXylyl(3)) [R3111] to Ac-CAERFCD[Tle]YWEYP[dPhg][Nva]-NH2 (linker 1-6 via mXylyl(3)) [R3149], the “Avg. IC50, human hemolysis assay” value falls from greater than 5000 nM to 13.6 nM.

B1 and Ac-[Nva][hCys][Phg]T[Trp(7-aza)]EY[NMeS]H[hCys][Nva]-NH2 (linker 2-10 via mXylyl(3)) [R3107] cannot be ordered by “Avg. IC50, human hemolysis assay” value: greater than 2000 nM for the first, greater than 75000 nM for the second.

Ac-CVERFCDVYWEFP-NH2 (linker 1-6 via mXylyl(3)) [R3141] and CVERFCDGYWEYP ([mXylyl(1,6)]Ac-C-V-E-R-F-C-D-Tbg-Y-W-E-Y-P-NH2) [R3143] are within 1.5-fold of each other in “Avg. IC50, human hemolysis assay” value: 24.5 nM for the first, 18.6 nM for the second.

Going from Ac-CVARFCD[Tle]Y[Trp(7-aza)]EYP[Phg][Nva]-NH2 (linker 1-6 via mXylyl(3)) [R3150] to Ac-CAERFCD[Tle]YWEYP[Phg][Nva]-NH2 (linker 1-6 via mXylyl(3)) [R3148], the “Avg. IC50, human hemolysis assay” value falls from 32 nM to 8.5 nM (3.8-fold).

Ac-[Nva]CYNN[Tle]E[Trp(7-aza)]ECP[Phg][Tle]-NH2 (linker 2-10 via mXylyl(3)) [R3127] and B2 cannot be ordered by “Avg. IC50, human hemolysis assay” value: greater than 75000 nM for the first, greater than 75000 nM for the second.

Compared with Ac-[Nva]C[Phg][dA][Trp(7-aza)]EY[NMeS]HC[Nva]-NH2 (linker 2-10 via mXylyl(3)) [R3133], Ac-C[Tle]ERFCDVYWEF-NH2 (linker 1-6 via mXylyl(3)) [R3146] is lower in “Avg. IC50, human hemolysis assay” value: greater than 75000 nM for the first, 107 nM for the second.

Ac-Y[Nva]C[Phg]T[Trp(7-aza)]EY[NMeS]HC[Nva]-NH2 (linker 3-11 via mXylyl(3)) [R3113] and Ac-[Nva][hCys][Phg]T[Trp(7-aza)]EY[NMeS]HC[Nva]-NH2 (linker 2-10 via mXylyl(3)) [R3103] cannot be ordered by “Avg. IC50, human hemolysis assay” value: greater than 5000 nM for the first, greater than 25000 nM for the second.

Going from Ac-[Nva]C[Phg]T[Trp(7-aza)]EY[NMeS]HC-NH2 (linker 2-10 via mXylyl″) [R3013] to Ac-[Nva]C[Phg]T[Trp(7-aza)]EY[NMeS]HC[Nva]P-NH2 (linker 2-10 via mXylyl″) [R3011], the “Avg. IC50, human hemolysis assay” value falls from 344 nM to 112 nM (3.1-fold).

Compared with Ac-C[Phg]T[Trp(7-aza)]EY[NMeS]HC[Nva]P[Nva]-NH2 (linker 1-9 via mXylyl″) [R3014], Ac-[Nva]CYNN[Tle]E[Trp(7-aza)]ECP[Phg][Tle]-NH2 (cysteine pairing not given here) [R3126] is higher in “Avg. IC50, human hemolysis assay” value: 1420 nM for the first, greater than 3000 nM for the second.

Compared with Ac-[Nva]C[Phg]T[Trp(7-aza)]EYPHC[Nva]-NH2 (linker 2-10 via mXylyl(3)) [R3102], Ac-[Nle]C[Phg]T[Trp(7-aza)]EY[NMeS]HC[Nva]-NH2 (linker 2-10 via mXylyl(3)) [R3112] is higher in “Avg. IC50, human hemolysis assay” value: 978 nM for the first, greater than 5000 nM for the second.

Ac-[Nva]CYE[Sar][Tle]Y[Trp(7-aza)]EC[Nva]P[Nva]-NH2 (linker 2-10 via mXylyl″) [R3009] and B3 cannot be ordered by “Avg. IC50, human hemolysis assay” value: greater than 100000 nM for the first, greater than 5000 nM for the second.

Going from Ac-[Nva]CYE[Sar][Tle]Y[Trp(7-aza)]E[Nva][Nva]PC-NH2 (linker 2-13 via mXylyl″) [R3010] to Ac-CVERFCDVYWEF[Pra]-NH2 (linker 1-6 via mXylyl(3)) [R3147], the “Avg. IC50, human hemolysis assay” value falls from greater than 100000 nM to 138 nM.

First: B4
Second: Ac-[Nva]C[Phg]T[Trp(7-aza)]EY[NMeS]HC[Nva]-NH2 (linker 2-10 via mXylyl″) [R3012]
The “Avg. IC50, human hemolysis assay” value of the first is higher: greater than 100000 nM for the first, 148 nM for the second.

Heptanoyl-[Nva]C[dPhg]T[Trp(7-aza)]EY[NMeS]AC[Nva]-NH2 (linker 2-10 via mXylyl(3)) [R3136] and Ac-[Nva]C[Tiq1c(1S)]T[Trp(7-aza)]EY[NMeS]HC[Nva]-NH2 (linker 2-10 via mXylyl(3)) [R3122] cannot be ordered by “Avg. IC50, human hemolysis assay” value: greater than 50000 nM for the first, greater than 50000 nM for the second.

Going from Ac-[Nva]C[Phg]T[Trp(7-aza)]EY[NMeS]H[hCys][Nva]-NH2 (linker 2-10 via mXylyl(3)) [R3105] to Ac-CVERFCD[Tle]YWEF-NH2 (linker 1-6 via mXylyl(3)) [R3138], the “Avg. IC50, human hemolysis assay” value falls from greater than 5000 nM to 87.2 nM.

Compared with Ac-[Nva]C[Phg]T[Trp(7-aza)]EY[NMeS][dA]C[Nva]-NH2 (linker 2-10 via mXylyl(3)) [R3135], Ac-CVERFCDVY[Trp(7-aza)]EYP-NH2 (linker 1-6 via mXylyl(3)) [R3142] is lower in “Avg. IC50, human hemolysis assay” value: greater than 25000 nM for the first, 44.6 nM for the second.

Compared with Heptanoyl-C[dPhg]T[Trp(7-aza)]EY[NMeS]AC[Nva]-NH2 (linker 1-9 via mXylyl(3)) [R3137], Ac-CVERFCDVYWEYP-NH2 (linker 1-6 via mXylyl(3)) [R3140] is lower in “Avg. IC50, human hemolysis assay” value: greater than 100000 nM for the first, 17.9 nM for the second.

Going from B5 to Ac-CVARFCD[Tle]Y[Trp(7-aza)]EYP[dPhg][Nva]-NH2 (linker 1-6 via mXylyl(3)) [R3151], the “Avg. IC50, human hemolysis assay” value falls from greater than 10000 nM to 165 nM.
